Reference: the Human Domainome abundance scans (Beltran et al. 2025)
± gives the uncertainty stated by the source.

B1: Tripartite motif-containing protein 44, residues 174 to 218; numbered along this chain, Q96DX7 (parent)
chain: VAKRKCPDHGLDLSTYCQEDRQLICVLCPVIGAHQGHQLSTLDEA
B2: RanBP-type and C3HC4-type zinc finger-containing protein 1, residues 369 to 411; numbered along this chain, Q9BYM8 (parent)
chain: YHCKTPDCKGWCFFEDDVNEFTCPVCFHVNCLLCKAIHEQMNC

Variants of: B1
Experiment: abundance fitness (aPCA) (normalised: wild type 0, dead -1); higher = more abundant; growth selection in yeast, the domain comes from the species named
Conditions: Homo sapiens

**Q.** Which abundance fitness does the source give for VAHRKCPDHGLDLSTYCQEDRQLICVLCPVIGAHQGHQLSTLDEA [K3H] here?
**A.** Its abundance fitness is -0.08 ± 0.057.

**Q.** For VAARKCPDHGLDLSTYCQEDRQLICVLCPVIGAHQGHQLSTLDEA [K3A], which abundance fitness is on record?
**A.** Its abundance fitness is -0.134 ± 0.027.

**Q.** For VALRKCPDHGLDLSTYCQEDRQLICVLCPVIGAHQGHQLSTLDEA [K3L], which abundance fitness is on record?
**A.** Its abundance fitness is -0.09 ± 0.027.

**Q.** For VACRKCPDHGLDLSTYCQEDRQLICVLCPVIGAHQGHQLSTLDEA [K3C], which abundance fitness is on record?
**A.** The abundance fitness was -0.379 ± 0.033.

**Q.** With AAKRKCPDHGLDLSTYCQEDRQLICVLCPVIGAHQGHQLSTLDEA [V1A] as the variant, how does the abundance fitness read?
**A.** The abundance fitness was -0.13 ± 0.034.

**Q.** With PAKRKCPDHGLDLSTYCQEDRQLICVLCPVIGAHQGHQLSTLDEA [V1P] as the variant, how does the abundance fitness read?
**A.** The abundance fitness was -0.11 ± 0.22.

**Q.** With IAKRKCPDHGLDLSTYCQEDRQLICVLCPVIGAHQGHQLSTLDEA [V1I] as the variant, how does the abundance fitness read?
**A.** The abundance fitness was 0.036 ± 0.035.

**Q.** For QAKRKCPDHGLDLSTYCQEDRQLICVLCPVIGAHQGHQLSTLDEA [V1Q], which abundance fitness is on record?
**A.** Its abundance fitness is -0.159 ± 0.16.

**Q.** With GAKRKCPDHGLDLSTYCQEDRQLICVLCPVIGAHQGHQLSTLDEA [V1G] as the variant, how does the abundance fitness read?
**A.** Its abundance fitness is -0.107 ± 0.029.

**Q.** With DAKRKCPDHGLDLSTYCQEDRQLICVLCPVIGAHQGHQLSTLDEA [V1D] as the variant, how does the abundance fitness read?
**A.** Its abundance fitness is -0.112 ± 0.041.

**Q.** Which abundance fitness does the source give for YAKRKCPDHGLDLSTYCQEDRQLICVLCPVIGAHQGHQLSTLDEA [V1Y] here?
**A.** The abundance fitness was -0.226 ± 0.055.

**Q.** With EAKRKCPDHGLDLSTYCQEDRQLICVLCPVIGAHQGHQLSTLDEA [V1E] as the variant, how does the abundance fitness read?
**A.** Its abundance fitness is -0.049 ± 0.038.

**Q.** For LAKRKCPDHGLDLSTYCQEDRQLICVLCPVIGAHQGHQLSTLDEA [V1L], which abundance fitness is on record?
**A.** The abundance fitness was -0.196 ± 0.038.

**Q.** Which abundance fitness does the source give for KAKRKCPDHGLDLSTYCQEDRQLICVLCPVIGAHQGHQLSTLDEA [V1K] here?
**A.** Its abundance fitness is -0.005 ± 0.041.

**Q.** With HAKRKCPDHGLDLSTYCQEDRQLICVLCPVIGAHQGHQLSTLDEA [V1H] as the variant, how does the abundance fitness read?
**A.** Its abundance fitness is -0.275 ± 0.085.

**Q.** For MAKRKCPDHGLDLSTYCQEDRQLICVLCPVIGAHQGHQLSTLDEA [V1M], which abundance fitness is on record?
**A.** Its abundance fitness is -0.032 ± 0.056.

**Q.** With RAKRKCPDHGLDLSTYCQEDRQLICVLCPVIGAHQGHQLSTLDEA [V1R] as the variant, how does the abundance fitness read?
**A.** The abundance fitness was -0.39 ± 0.057.

**Q.** Which abundance fitness does the source give for CAKRKCPDHGLDLSTYCQEDRQLICVLCPVIGAHQGHQLSTLDEA [V1C] here?
**A.** The abundance fitness was -0.029 ± 0.06.

**Q.** For FAKRKCPDHGLDLSTYCQEDRQLICVLCPVIGAHQGHQLSTLDEA [V1F], which abundance fitness is on record?
**A.** Its abundance fitness is -0.197 ± 0.06.

**Q.** Which abundance fitness does the source give for SAKRKCPDHGLDLSTYCQEDRQLICVLCPVIGAHQGHQLSTLDEA [V1S] here?
**A.** The abundance fitness was -0.027 ± 0.061.

**Q.** For WAKRKCPDHGLDLSTYCQEDRQLICVLCPVIGAHQGHQLSTLDEA [V1W], which abundance fitness is on record?
**A.** Its abundance fitness is -0.231 ± 0.051.

**Q.** Which abundance fitness does the source give for NAKRKCPDHGLDLSTYCQEDRQLICVLCPVIGAHQGHQLSTLDEA [V1N] here?
**A.** The abundance fitness was -0.097 ± 0.047.

Variants of: B2
Experiment: as above
Conditions: Homo sapiens

**Q.** For YHCKTPDCKGWCFFEDDVNEFTCPVCFHVNCLLCKAIHEQMMC [N42M], which abundance fitness is on record?
**A.** Its abundance fitness is -0.101 ± 0.06.

**Q.** With YHCKTPDCKGWCFFEDDVNEFTCPVCFHVNCLLCKAIHEQMGC [N42G] as the variant, how does the abundance fitness read?
**A.** Its abundance fitness is 0.161 ± 0.041.

**Q.** With YHCKTPDCKGWCFFEDDVNEFTCPVCFHVNCLLCKAIHEQMLC [N42L] as the variant, how does the abundance fitness read?
**A.** The abundance fitness was -0.196 ± 0.056.

**Q.** Which abundance fitness does the source give for YHCKTPDCKGWCFFEDDVNEFTCPVCFHVNCLLCKAIHEQMVC [N42V] here?
**A.** Its abundance fitness is -0.141 ± 0.062.

**Q.** For YHCKTPDCKGWCFFEDDVNEFTCPVCFHVNCLLCKAIHEQMWC [N42W], which abundance fitness is on record?
**A.** The abundance fitness was -0.069 ± 0.085.

**Q.** Which abundance fitness does the source give for YHCKTPDCKGWCFFEDDVNEFTCPVCFHVNCLLCKAIHEQMAC [N42A] here?
**A.** The abundance fitness was 0.106 ± 0.043.

**Q.** For YHCKTPDCKGWCFFEDDVNEFTCPVCFHVNCLLCKAIHEQMSC [N42S], which abundance fitness is on record?
**A.** Its abundance fitness is 0.006 ± 0.042.

**Q.** Which abundance fitness does the source give for YHCKTPDCKGWCFFEDDVNEFTCPVCFHVNCLLCKAIHEQMKC [N42K] here?
**A.** Its abundance fitness is -0.064 ± 0.05.

**Q.** With YHCKTPDCKGWCFFEDDVNEFTCPVCFHVNCLLCKAIHEQMFC [N42F] as the variant, how does the abundance fitness read?
**A.** Its abundance fitness is -0.415 ± 0.12.

**Q.** Which abundance fitness does the source give for YHCKTPDCKGWCFFEDDVNEFTCPVCFHVNCLLCKAIHEQMHC [N42H] here?
**A.** Its abundance fitness is 0.138 ± 0.091.

**Q.** With YHCKTPDCKGWCFFEDDVNEFTCPVCFHVNCLLCKAIHEQMCC [N42C] as the variant, how does the abundance fitness read?
**A.** The abundance fitness was -0.005 ± 0.094.

**Q.** For YHCKTPDCKGWCFFEDDVNEFTCPVCFHVNCLLCKAIHEQMIC [N42I], which abundance fitness is on record?
**A.** The abundance fitness was -0.231 ± 0.21.

**Q.** Which abundance fitness does the source give for YHCKTPDCKGWCFFEDDVNEFTCPVCFHVNCLLCKAIHEQMDC [N42D] here?
**A.** The abundance fitness was 0.025 ± 0.066.

**Q.** With YHCKTPDCKGWCFFEDDVNEFTCPVCFHVNCLLCKAIHEQMYC [N42Y] as the variant, how does the abundance fitness read?
**A.** Its abundance fitness is -0.122 ± 0.14.

**Q.** For YHCKTPDCKGWCFFEDDVNEFTCPVCFHVNCLLCKAIHEQMRC [N42R], which abundance fitness is on record?
**A.** Its abundance fitness is -0.008 ± 0.046.

**Q.** Which abundance fitness does the source give for YHCKTPDCKGWCFFEDDVNEFTCPVCFHVNCLLCKAIHEQMEC [N42E] here?
**A.** The abundance fitness was 0.075 ± 0.055.

**Q.** For YHCKTPDCKGWCFFEDDVNEFTCPVCFHVNCLLCKAIHEQMPC [N42P], which abundance fitness is on record?
**A.** Its abundance fitness is 0.219 ± 0.058.

**Q.** For YHCKTPDCKGWCFFEDDVNEFTCPVCFHVNCLLCKAIHEQMTC [N42T], which abundance fitness is on record?
**A.** Its abundance fitness is 0.069 ± 0.063.

**Q.** Which abundance fitness does the source give for YHCKTPDCKGWCFFEDDVNEFTCPVCFHVNCLLCKAIHEQMQC [N42Q] here?
**A.** The abundance fitness was 0.304 ± 0.099.

**Q.** For YHCKTPDCKGWCFFEDDVNEFTCPVCFHVNCLLCKAIHEQMNA [C43A], which abundance fitness is on record?
**A.** Its abundance fitness is -0.372 ± 0.076.

**Q.** With YHCKTPDCKGWCFFEDDVNEFTCPVCFHVNCLLCKAIHEQMNK [C43K] as the variant, how does the abundance fitness read?
**A.** The abundance fitness was -0.37 ± 0.074.

**Q.** With YHCKTPDCKGWCFFEDDVNEFTCPVCFHVNCLLCKAIHEQMNR [C43R] as the variant, how does the abundance fitness read?
**A.** The abundance fitness was -0.323 ± 0.045.

**Q.** Which abundance fitness does the source give for YHCKTPDCKGWCFFEDDVNEFTCPVCFHVNCLLCKAIHEQMNP [C43P] here?
**A.** The abundance fitness was -0.211 ± 0.089.

**Q.** Which abundance fitness does the source give for YHCKTPDCKGWCFFEDDVNEFTCPVCFHVNCLLCKAIHEQMNN [C43N] here?
**A.** The abundance fitness was -0.511 ± 0.15.

**Q.** For YHCKTPDCKGWCFFEDDVNEFTCPVCFHVNCLLCKAIHEQMNQ [C43Q], which abundance fitness is on record?
**A.** Its abundance fitness is -0.357 ± 0.074.

**Q.** For YHCKTPDCKGWCFFEDDVNEFTCPVCFHVNCLLCKAIHEQMNY [C43Y], which abundance fitness is on record?
**A.** The abundance fitness was -0.424 ± 0.12.

**Q.** For YHCKTPDCKGWCFFEDDVNEFTCPVCFHVNCLLCKAIHEQMNT [C43T], which abundance fitness is on record?
**A.** Its abundance fitness is -0.216 ± 0.089.

**Q.** With YHCKTPDCKGWCFFEDDVNEFTCPVCFHVNCLLCKAIHEQMNH [C43H] as the variant, how does the abundance fitness read?
**A.** Its abundance fitness is -0.23 ± 0.12.

**Q.** For YHCKTPDCKGWCFFEDDVNEFTCPVCFHVNCLLCKAIHEQMNG [C43G], which abundance fitness is on record?
**A.** The abundance fitness was -0.29 ± 0.057.

**Q.** Which abundance fitness does the source give for YHCKTPDCKGWCFFEDDVNEFTCPVCFHVNCLLCKAIHEQMNV [C43V] here?
**A.** Its abundance fitness is -0.396 ± 0.071.

**Q.** For YHCKTPDCKGWCFFEDDVNEFTCPVCFHVNCLLCKAIHEQMNS [C43S], which abundance fitness is on record?
**A.** The abundance fitness was -0.312 ± 0.055.

**Q.** Which abundance fitness does the source give for YHCKTPDCKGWCFFEDDVNEFTCPVCFHVNCLLCKAIHEQMNM [C43M] here?
**A.** The abundance fitness was -0.507 ± 0.43.

**Q.** With YHCKTPDCKGWCFFEDDVNEFTCPVCFHVNCLLCKAIHEQMNE [C43E] as the variant, how does the abundance fitness read?
**A.** The abundance fitness was -0.427 ± 0.15.

**Q.** For YHCKTPDCKGWCFFEDDVNEFTCPVCFHVNCLLCKAIHEQMNI [C43I], which abundance fitness is on record?
**A.** Its abundance fitness is -0.511 ± 0.11.

**Q.** With YHCKTPDCKGWCFFEDDVNEFTCPVCFHVNCLLCKAIHEQWNC [M41W] as the variant, how does the abundance fitness read?
**A.** The abundance fitness was -0.035 ± 0.055.

**Q.** With YHCKTPDCKGWCFFEDDVNEFTCPVCFHVNCLLCKAIHEQYNC [M41Y] as the variant, how does the abundance fitness read?
**A.** The abundance fitness was -0.173 ± 0.13.
